Source: patent US20170035877A1 (published 2017)

Biological target: soluble four-domain CD4 (UniProt P01730 26-390)
Assay: ITC

B1: 16055 SOSIP.663 trimer, negatively selected (flow-through of the GE136 column) (other)
chain 1: not shown
chain 2: AVGLGAVIFGFLGAAGSTMGAASITLTVQARQLLSGIVQQQSNLLKAPEAQQHLLQLTVWGIKQLQTRVLAIERYLKDQQLLGIWGCSGKLICCTAVPWNSSWSNKSHDEIWGNMTWMQWDREISNYTNTIYRLLEDSQNQQEQNEKDLLAL
Kd: 6 nM
